Results taken from patent US20210070881A1.

Molecular target: cellular BACE1 in CHOK1-huAPP cells
Assay: cell-based or functional assay

B1: Clone35.23.4:Control IgG (anti-RSV)/2H8 (bispecific antibody, part only; not given: Anti-RSV arm; TfR-binding Fc, V domains shown, part only)
VH: QVQLVQSGAEVKKPGASVKVSCKASGYTFTNFWIHWVRQAPGQGLEWMGMIDPSSSYTKYNQKFKARATLTVDTSTSTVYMELSSLRSEDTAVYYCARSGASLPYWGQGTLVTVSS
VL: DIQMTQSPSSLSASVGDRVTITCKASQDVGRNVAWYQQKPGKSPKSLIYSASHYYSGVPSRFSGSGSGTDFTLTISSLQPEDFATYFCQQYYSYPYTFGQGTKVEIK
cellular IC50 (human Aβ40, CHO-huAPP cells): 37 nM | maximum percent Aβ reduction compared to untreated control: 83%
